Paper PMC10397247
Values belong to the binder of their own block, whether it stands above or below them.

How the values were obtained:
Core_INII-es_KEEK = target: T1, Core_INII-es_KEEK; test: two-hybrid library CCmax; settings: mean of both orientations;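 also: natural log of median RNA to DNA barcode read ratio; higher means stronger binding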
T1 chain: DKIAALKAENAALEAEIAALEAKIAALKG

P4SC2 [1] = target: T2, P4SC2; test: two-hybrid library CCNG1;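 also: natural log of median RNA to DNA barcode read ratio; higher means stronger binding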
T2 chain: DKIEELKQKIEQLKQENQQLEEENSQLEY

P4SC2 [2] = target: T2, P4SC2; test: two-hybrid library CCmax; settings: mean of both orientations;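 also: natural log of median RNA to DNA barcode read ratio; higher means stronger binding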
4H327-AA = target: T3, 4H327-AA; test: two-hybrid library CCmax; settings: mean of both orientations;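 also: natural log of median RNA to DNA barcode read ratio; higher means stronger binding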
T3 chain: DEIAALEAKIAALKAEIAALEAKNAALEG

4H2726-AA = target: T4, 4H2726-AA; test: two-hybrid library CCmax; settings: mean of both orientations;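 also: natural log of median RNA to DNA barcode read ratio; higher means stronger binding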
T4 chain: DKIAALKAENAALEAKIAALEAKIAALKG

4H1405-AA = target: T5, 4H1405-AA; test: two-hybrid library CCmax; settings: mean of both orientations;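 also: natural log of median RNA to DNA barcode read ratio; higher means stronger binding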
T5 chain: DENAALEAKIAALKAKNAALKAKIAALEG

4H2935-AA = target: T6, 4H2935-AA; test: two-hybrid library CCmax; settings: mean of both orientations
T6 chain: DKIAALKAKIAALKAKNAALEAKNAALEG

4H3625-AA = target: T7, 4H3625-AA; test: two-hybrid library CCmax; settings: mean of both orientations
T7 chain: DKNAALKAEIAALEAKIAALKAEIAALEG

4H2238-AA = target: T8, 4H2238-AA; test: two-hybrid library CCmax; settings: mean of both orientations
T8 chain: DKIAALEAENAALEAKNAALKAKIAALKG

4H1198-AA = target: T9, 4H1198-AA; test: two-hybrid library CCmax; settings: mean of both orientations
T9 chain: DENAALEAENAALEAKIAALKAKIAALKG

4H369-AA = target: T10, 4H369-AA; test: two-hybrid library CCmax; settings: mean of both orientations
T10 chain: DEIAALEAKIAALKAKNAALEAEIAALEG

4H2211-AA = target: T11, 4H2211-AA; test: two-hybrid library CCmax; settings: mean of both orientations
T11 chain: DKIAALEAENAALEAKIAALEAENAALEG

4H2608-AA = target: T12, 4H2608-AA; test: two-hybrid library CCmax; settings: mean of both orientations
T12 chain: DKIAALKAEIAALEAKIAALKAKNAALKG

4H1082-AA = target: T13, 4H1082-AA; test: two-hybrid library CCmax
T13 chain: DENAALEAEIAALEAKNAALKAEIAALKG

4H4033-AA = target: T14, 4H4033-AA; test: two-hybrid library CCmax; settings: mean of both orientations
T14 chain: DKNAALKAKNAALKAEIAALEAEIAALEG

4H1103-AA = target: T15, 4H1103-AA; test: two-hybrid library CCmax; settings: mean of both orientations
T15 chain: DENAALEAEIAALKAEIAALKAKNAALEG

4H662-AA = target: T16, 4H662-AA; test: two-hybrid library CCmax; settings: mean of both orientations
T16 chain: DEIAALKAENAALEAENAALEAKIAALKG

4H3922-AA = target: T17, 4H3922-AA; test: two-hybrid library CCmax; settings: mean of both orientations
T17 chain: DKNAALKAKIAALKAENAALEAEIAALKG

4H1017-AA = target: T18, 4H1017-AA; test: two-hybrid library CCmax
T18 chain: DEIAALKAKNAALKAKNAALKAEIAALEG

4H3605-AA = target: T19, 4H3605-AA; test: two-hybrid library CCmax; settings: mean of both orientations
T19 chain: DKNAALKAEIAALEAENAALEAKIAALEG

4H2614-AA = target: T20, 4H2614-AA; test: two-hybrid library CCmax; settings: mean of both orientations
T20 chain: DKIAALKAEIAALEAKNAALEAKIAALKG

4H2513-AA = target: T21, 4H2513-AA; test: two-hybrid library CCmax; settings: mean of both orientations
T21 chain: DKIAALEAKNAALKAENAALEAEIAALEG

4H55-AA = target: T22, 4H55-AA; test: two-hybrid library CCmax; settings: mean of both orientations
T22 chain: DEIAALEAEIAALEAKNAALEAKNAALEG

4H2536-AA = target: T23, 4H2536-AA; test: two-hybrid library CCmax; settings: mean of both orientations
T23 chain: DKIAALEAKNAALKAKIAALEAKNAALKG

4H481-AA = target: T24, 4H481-AA; test: two-hybrid library CCmax; settings: mean of both orientations
T24 chain: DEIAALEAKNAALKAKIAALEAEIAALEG

4H1350-AA = target: T25, 4H1350-AA; test: two-hybrid library CCmax; settings: mean of both orientations
T25 chain: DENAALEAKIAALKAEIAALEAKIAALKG

4H3664-AA = target: T26, 4H3664-AA; test: two-hybrid library CCmax; settings: mean of both orientations
T26 chain: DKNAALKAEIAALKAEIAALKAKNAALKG

4H717-bA = target: T27, 4H717-bA; test: two-hybrid library CCNG1
T27 chain: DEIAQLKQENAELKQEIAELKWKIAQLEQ

4H607-bA = target: T28, 4H607-bA; test: two-hybrid library CCNG1
T28 chain: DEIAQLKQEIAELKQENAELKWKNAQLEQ

4H2442-bA = target: T29, 4H2442-bA; test: two-hybrid library CCNG1
T29 chain: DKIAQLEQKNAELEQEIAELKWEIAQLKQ

4H754-bA = target: T30, 4H754-bA; test: two-hybrid library CCNG1
T30 chain: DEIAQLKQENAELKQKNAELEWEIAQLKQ

4H338-bA = target: T31, 4H338-bA; test: two-hybrid library CCNG1
T31 chain: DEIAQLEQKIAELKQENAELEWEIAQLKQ

4H3354-bA = target: T32, 4H3354-bA; test: two-hybrid library CCNG1
T32 chain: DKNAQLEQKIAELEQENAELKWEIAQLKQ

4H687-bA = target: T33, 4H687-bA; test: two-hybrid library CCNG1
T33 chain: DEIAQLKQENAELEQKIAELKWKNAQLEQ

4H953-bN = target: T34, 4H953-bN; test: two-hybrid library CCNG1
T34 chain: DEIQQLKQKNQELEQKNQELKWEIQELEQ

4H1845-bA = target: T35, 4H1845-bA; test: two-hybrid library CCNG1
T35 chain: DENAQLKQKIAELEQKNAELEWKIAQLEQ

4H3855-bA = target: T36, 4H3855-bA; test: two-hybrid library CCNG1
T36 chain: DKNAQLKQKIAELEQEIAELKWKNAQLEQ

4H3185-bA = target: T37, 4H3185-bA; test: two-hybrid library CCNG1
T37 chain: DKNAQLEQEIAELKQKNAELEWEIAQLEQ

4H918-bA = target: T38, 4H918-bA; test: two-hybrid library CCNG1
T38 chain: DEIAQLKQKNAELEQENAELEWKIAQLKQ

4H797-bA = target: T39, 4H797-bA; test: two-hybrid library CCNG1
T39 chain: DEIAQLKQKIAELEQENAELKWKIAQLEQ

4H2667-bA = target: T40, 4H2667-bA; test: two-hybrid library CCNG1
T40 chain: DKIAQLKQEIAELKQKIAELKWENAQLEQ

4H1828-bA = target: T41, 4H1828-bA; test: two-hybrid library CCNG1
T41 chain: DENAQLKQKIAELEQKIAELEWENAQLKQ

O2-bA = target: T42, O2-bA; test: two-hybrid library CCNG1
T42 chain: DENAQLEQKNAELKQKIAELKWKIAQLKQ

4H908-bA = target: T43, 4H908-bA; test: two-hybrid library CCNG1
T43 chain: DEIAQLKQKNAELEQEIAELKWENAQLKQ

4H568-bA = target: T44, 4H568-bA; test: two-hybrid library CCNG1
T44 chain: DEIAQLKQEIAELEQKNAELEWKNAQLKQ

4H331-bA = target: T45, 4H331-bA; test: two-hybrid library CCNG1
T45 chain: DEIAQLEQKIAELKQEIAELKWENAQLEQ

4H3782-bA = target: T46, 4H3782-bA; test: two-hybrid library CCNG1
T46 chain: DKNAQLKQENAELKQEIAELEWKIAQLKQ

4H454-bA = target: T47, 4H454-bA; test: two-hybrid library CCNG1
T47 chain: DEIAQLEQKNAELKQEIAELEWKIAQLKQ

4H4001-bA = target: T48, 4H4001-bA; test: two-hybrid library CCNG1
T48 chain: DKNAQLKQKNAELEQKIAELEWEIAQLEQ

4H3112-bA = target: T49, 4H3112-bA; test: two-hybrid library CCNG1
T49 chain: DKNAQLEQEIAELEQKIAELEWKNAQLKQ

4H3427-bA = target: T50, 4H3427-bA; test: two-hybrid library CCNG1
T50 chain: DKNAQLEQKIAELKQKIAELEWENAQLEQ

4H1257-bA = target: T51, 4H1257-bA; test: two-hybrid library CCNG1
T51 chain: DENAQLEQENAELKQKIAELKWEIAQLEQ

4H2618-bA = target: T52, 4H2618-bA; test: two-hybrid library CCNG1
T52 chain: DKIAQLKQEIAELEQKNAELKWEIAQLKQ

4H883-bA = target: T53, 4H883-bA; test: two-hybrid library CCNG1
T53 chain: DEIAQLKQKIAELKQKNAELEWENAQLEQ

4H2729-bA = target: T54, 4H2729-bA; test: two-hybrid library CCNG1
T54 chain: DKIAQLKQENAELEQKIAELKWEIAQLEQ

4H72-bA = target: T55, 4H72-bA; test: two-hybrid library CCNG1
T55 chain: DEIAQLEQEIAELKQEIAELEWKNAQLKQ

4H2576-bA = target: T56, 4H2576-bA; test: two-hybrid library CCNG1
T56 chain: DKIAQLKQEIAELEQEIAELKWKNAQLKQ

4H1446-bA = target: T57, 4H1446-bA; test: two-hybrid library CCNG1
T57 chain: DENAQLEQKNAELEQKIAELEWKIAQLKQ

4H967-bA = target: T58, 4H967-bA; test: two-hybrid library CCNG1
T58 chain: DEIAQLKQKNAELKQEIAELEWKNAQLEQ

4H953-bA = target: T59, 4H953-bA; test: two-hybrid library CCNG1
T59 chain: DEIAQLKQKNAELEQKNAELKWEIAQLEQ

Core_IIIN-es_KKKK = target: T60, Core_IIIN-es_KKKK; test: two-hybrid library CCmax; settings: mean of both orientations
T60 chain: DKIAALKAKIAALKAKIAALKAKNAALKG

interaction score (Core_INII-es_KEEK): 2.32
Binder: DEIAALEAKNAALKAKIAALKAEIAALEG [Core_INII-es_EKKE]

interaction score (P4SC2 [1]): 1.12
interaction score (P4SC2 [2]): 0.206
Binder: DEIQQLEEEIRQLEQKNSQLKEKNQQLKY [P3SC2]

interaction score (4H327-AA): -1.46
interaction score (4H2726-AA): 0.98
interaction score (4H1405-AA): -1.79
interaction score (4H2935-AA): -3.83
interaction score (4H3625-AA): -1.94
interaction score (4H2238-AA): 1.64
interaction score (4H1198-AA): 0.565
interaction score (4H369-AA): -1.44
interaction score (4H2211-AA): -1.35
interaction score (4H2608-AA): -1.64
interaction score (4H1082-AA): -2.19
interaction score (4H4033-AA): -2.3
interaction score (4H1103-AA): -1.61
interaction score (4H662-AA): 2.48
interaction score (4H3922-AA): -0.887
interaction score (4H1017-AA): -1.79
interaction score (4H3605-AA): 0.203
interaction score (4H2614-AA): 0.0732
interaction score (4H2513-AA): -1.22
interaction score (4H55-AA): -1.6
interaction score (4H2536-AA): -1.48
interaction score (4H481-AA): -1.63
interaction score (4H1350-AA): -1.39
interaction score (4H3664-AA): -1.53
Binder: DEIAALKAKNAALKAKNAALKAEIAALEG [4H1017-AA]

interaction score (4H717-bA): -0.0683
interaction score (4H607-bA): -1.24
interaction score (4H2442-bA): -0.983
interaction score (4H754-bA): -1.15
interaction score (4H338-bA): -1.24
interaction score (4H3354-bA): -0.884
interaction score (4H687-bA): -0.935
interaction score (4H953-bN): -2.6
interaction score (4H1845-bA): -0.799
interaction score (4H3855-bA): -0.705
interaction score (4H3185-bA): -1.37
interaction score (4H918-bA): -0.431
interaction score (4H797-bA): -0.933
interaction score (4H2667-bA): -0.847
interaction score (4H1828-bA): -0.782
interaction score (O2-bA): -1.33
interaction score (4H908-bA): -1.38
interaction score (4H568-bA): -1.75
interaction score (4H331-bA): -0.712
interaction score (4H3782-bA): 2.01
interaction score (4H454-bA): 1.77
interaction score (4H4001-bA): -0.102
interaction score (4H3112-bA): -0.693
interaction score (4H3427-bA): -0.869
interaction score (4H1257-bA): -0.0608
interaction score (4H2618-bA): -0.882
interaction score (4H883-bA): -1.18
interaction score (4H2729-bA): -0.154
interaction score (4H72-bA): -1.15
interaction score (4H2576-bA): 0.908
interaction score (4H1446-bA): -0.55
interaction score (4H967-bA): -1.12
interaction score (4H953-bA): -1.53
Binder: DENAQLEQENAELKQKIAELKWEIAQLEQ [4H1257-bA]

interaction score (Core_IIIN-es_KKKK): 1.39
Binder: DEIAALEAEIAALEAEIAALEAENAALEG [Core_IIIN-es_EEEE]
